Consider 13 variants from IntAct's records for PubMed 31515488.

B1: Four and a half LIM domains protein 2 (Homo sapiens), Q14192 (parent)
chain: MTERFDCHHCNESLFGKKYILREESPYCVVCFETLFANTCEECGKPIGCDCKDLSYKDRHWHEACFHCSQCRNSLVDKPFAAKEDQLLCTDCYSNEYSSKCQECKKTIMPGTRKMEYKGSSWHETCFICHRCQQPIGTKSFIPKDNQNFCVPCYEKQHAMQCVQCKKPITTGGVTYREQPWHKECFVCTACRKQLSGQRFTARDDFAYCLNCFCDLYAKKCAGCTNPISGLGGTKYISFEERQWHNDCFNCKKCSLSLVGRGFLTERDDILCPDCGKDI
B2: Cyclin-dependent kinase 4 inhibitor D (Homo sapiens), P55273 (parent)
chain: MLLEEVRAGDRLSGAAARGDVQEVRRLLHRELVHPDALNRFGKTALQVMMFGSTAIALELLKQGASPNVQDTSGTSPVHDAARTGFLDTLKVLVEHGADVNVPDGTGALPIHLAVQEGHTAVVSFLAAESDLHRRDARGLTPLELALQRGAQDLVDILQGHMVAPL
partner: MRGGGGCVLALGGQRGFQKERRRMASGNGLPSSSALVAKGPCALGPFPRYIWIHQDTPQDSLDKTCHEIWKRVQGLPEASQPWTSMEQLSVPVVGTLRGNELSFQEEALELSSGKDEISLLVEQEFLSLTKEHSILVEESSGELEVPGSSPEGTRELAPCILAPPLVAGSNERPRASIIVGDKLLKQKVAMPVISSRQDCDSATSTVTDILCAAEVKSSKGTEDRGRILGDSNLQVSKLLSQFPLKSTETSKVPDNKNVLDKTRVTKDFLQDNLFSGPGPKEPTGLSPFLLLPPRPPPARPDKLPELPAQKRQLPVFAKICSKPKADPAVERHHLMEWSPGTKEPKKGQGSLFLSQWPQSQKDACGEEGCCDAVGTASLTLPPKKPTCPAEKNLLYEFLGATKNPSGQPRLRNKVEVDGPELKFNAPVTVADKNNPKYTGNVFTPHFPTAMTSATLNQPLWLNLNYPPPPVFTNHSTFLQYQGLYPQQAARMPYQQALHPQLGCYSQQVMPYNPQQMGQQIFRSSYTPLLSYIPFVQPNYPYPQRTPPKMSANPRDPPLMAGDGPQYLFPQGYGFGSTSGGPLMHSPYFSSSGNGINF
B3: Sulfotransferase 1A1 (Homo sapiens), P50225 (parent)
chain: MELIQDTSRPPLEYVKGVPLIKYFAEALGPLQSFQARPDDLLISTYPKSGTTWVSQILDMIYQGGDLEKCHRAPIFMRVPFLEFKAPGIPSGMETLKDTPAPRLLKTHLPLALLPQTLLDQKVKVVYVARNAKDVAVSYYHFYHMAKVHPEPGTWDSFLEKFMVGEVSYGSWYQHVQEWWELSRTHPVLYLFYEDMKENPKREIQKILEFVGRSLPEETVDFVVQHTSFKEMKKNPMTNYTTVPQEFMDHSISPFMRKGMAGDWKTTFTVAQNERFDADYAEKMAGCSLSFRSEL
partner: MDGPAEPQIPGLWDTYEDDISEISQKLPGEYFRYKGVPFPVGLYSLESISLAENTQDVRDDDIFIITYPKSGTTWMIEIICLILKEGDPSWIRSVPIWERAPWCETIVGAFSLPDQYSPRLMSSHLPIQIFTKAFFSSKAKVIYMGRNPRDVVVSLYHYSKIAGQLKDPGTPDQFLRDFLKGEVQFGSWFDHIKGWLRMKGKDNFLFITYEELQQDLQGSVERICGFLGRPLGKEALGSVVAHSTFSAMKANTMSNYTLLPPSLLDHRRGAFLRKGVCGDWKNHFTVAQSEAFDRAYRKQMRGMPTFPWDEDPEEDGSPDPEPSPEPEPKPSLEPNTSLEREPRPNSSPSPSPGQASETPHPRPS
B4: Nucleolar protein 12 (Homo sapiens), Q9UGY1 (parent)
chain: MGRNKKKKRDGDDRRPRLVLSFDEEKRREYLTGFHKRKVERKKAAIEEIKQRLKEEQRKLREERHQEYLKMLAEREEALEEADELDRLVTAKTESVQYDHPNHTVTVTTISDLDLSGARLLGLTPPEGGAGDRSEEEASSTEKPTKALPRKSRDPLLSQRISSLTASLHAHSRKKVKRKHPRRAQDSKKPPRAPRTSKAQRRRLTGKARHSGE
B5: Pseudouridylate synthase PUS7L (Homo sapiens), Q9H0K6 (parent)
chain: MEEDTDYRIRFSSLCFFNDHVGFHGTIKSSPSDFIVIEIDEQGQLVNKTIDEPIFKISEIQLEPNNFPKKPKLDLQNLSLEDGRNQEVHTLIKYTDGDQNHQSGSEKEDTIVDGTSKCEEKADVLSSFLDEKTHELLNNFACDVREKWLSKTELIGLPPEFSIGRILDKNQRASLHSAIRQKFPFLVTVGKNSEIVVKPNLEYKELCHLVSEEEAFDFFKYLDAKKENSKFTFKPDTNKDHRKAVHHFVNKKFGNLVETKSFSKMNCSAGNPNVVVTVRFREKAHKRGKRPLSECQEGKVIYTAFTLRKENLEMFEAIGFLAIKLGVIPSDFSYAGLKDKKAITYQAMVVRKVTPERLKNIEKEIEKKRMNVFNIRSVDDSLRLGQLKGNHFDIVIRNLKKQINDSANLRERIMEAIENVKKKGFVNYYGPQRFGKGRKVHTDQIGLALLKNEMMKAIKLFLTPEDLDDPVNRAKKYFLQTEDAKGTLSLMPEFKVRERALLEALHRFGMTEEGCIQAWFSLPHSMRIFYVHAYTSKIWNEAVSYRLETYGARVVQGDLVCLDEDIDDENFPNSKIHLVTEEEGSANMYAIHQVVLPVLGYNIQYPKNKVGQWYHDILSRDGLQTCRFKVPTLKLNIPGCYRQILKHPCNLSYQLMEDHDIDVKTKGSHIDETALSLLISFDLDASCYATVCLKEIMKHDV
partner: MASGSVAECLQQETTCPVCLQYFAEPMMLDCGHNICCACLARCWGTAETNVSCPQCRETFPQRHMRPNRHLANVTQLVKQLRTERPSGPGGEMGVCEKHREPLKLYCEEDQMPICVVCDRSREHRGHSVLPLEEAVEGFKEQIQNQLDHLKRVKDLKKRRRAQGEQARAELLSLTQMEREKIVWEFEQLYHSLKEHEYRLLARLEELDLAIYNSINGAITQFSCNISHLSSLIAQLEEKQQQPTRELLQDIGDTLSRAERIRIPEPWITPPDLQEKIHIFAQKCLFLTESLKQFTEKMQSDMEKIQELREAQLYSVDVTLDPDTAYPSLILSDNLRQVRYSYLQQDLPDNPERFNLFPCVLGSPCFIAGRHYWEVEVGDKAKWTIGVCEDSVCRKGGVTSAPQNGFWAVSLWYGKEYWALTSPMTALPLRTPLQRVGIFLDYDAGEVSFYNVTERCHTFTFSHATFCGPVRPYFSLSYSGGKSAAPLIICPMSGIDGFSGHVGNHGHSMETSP
B6: MYG1 exonuclease (Homo sapiens), Q9HB07 (parent)
chain: MGHRFLRGLLTLLLPPPPLYTRHRMLGPESVPPPKRSRSKLMAPPRIGTHNGTFHCDEALACALLRLLPEYRDAEIVRTRDPEKLASCDIVVDVGGEYDPRRHRYDHHQRSFTETMSSLSPGKPWQTKLSSAGLIYLHFGHKLLAQLLGTSEEDSMVGTLYDKMYENFVEEVDAVDNGISQWAEGEPRYALTTTLSARVARLNPTWNHPDQDTEAGFKRAMDLVQEEFLQRLDFYQHSWLPARALVEEALAQRFQVDPSGEIVELAKGACPWKEHLYHLESGLSPPVAIFFVIYTDQAGQWRIQCVPKEPHSFQSRLPLPEPWRGLRDEALDQVSGIPGCIFVHASGFIGGHRTREGALSMARATLAQRSYLPQIS
partner: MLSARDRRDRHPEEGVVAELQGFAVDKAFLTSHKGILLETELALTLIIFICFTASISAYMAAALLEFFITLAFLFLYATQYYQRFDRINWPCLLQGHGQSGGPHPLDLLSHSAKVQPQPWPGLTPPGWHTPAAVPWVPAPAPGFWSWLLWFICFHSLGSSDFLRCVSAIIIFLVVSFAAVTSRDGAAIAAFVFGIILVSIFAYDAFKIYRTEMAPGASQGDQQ
B7: Notch homolog 2 N-terminal-like protein A (Homo sapiens), Q7Z3S9 (parent)
chain: MCVTYHNGTGYCKCPEGFLGEYCQHRDPCEKNRCQNGGTCVAQAMLGKATCRCASGFTGEDCQYSTSHPCFVSRPCLNGGTCHMLSRDTYECTCQVGFTGKECQWTDACLSHPCANGSTCTTVANQFSCKCLTGFTGQKCETDVNECDIPGHCQHGGTCLNLPGSYQCQCLQGFTGQYCDSLYVPCAPSPCVNGGTCRQTGDFTFECNCLPETVRRGTELWERDREVWNGKEHDEN
partner: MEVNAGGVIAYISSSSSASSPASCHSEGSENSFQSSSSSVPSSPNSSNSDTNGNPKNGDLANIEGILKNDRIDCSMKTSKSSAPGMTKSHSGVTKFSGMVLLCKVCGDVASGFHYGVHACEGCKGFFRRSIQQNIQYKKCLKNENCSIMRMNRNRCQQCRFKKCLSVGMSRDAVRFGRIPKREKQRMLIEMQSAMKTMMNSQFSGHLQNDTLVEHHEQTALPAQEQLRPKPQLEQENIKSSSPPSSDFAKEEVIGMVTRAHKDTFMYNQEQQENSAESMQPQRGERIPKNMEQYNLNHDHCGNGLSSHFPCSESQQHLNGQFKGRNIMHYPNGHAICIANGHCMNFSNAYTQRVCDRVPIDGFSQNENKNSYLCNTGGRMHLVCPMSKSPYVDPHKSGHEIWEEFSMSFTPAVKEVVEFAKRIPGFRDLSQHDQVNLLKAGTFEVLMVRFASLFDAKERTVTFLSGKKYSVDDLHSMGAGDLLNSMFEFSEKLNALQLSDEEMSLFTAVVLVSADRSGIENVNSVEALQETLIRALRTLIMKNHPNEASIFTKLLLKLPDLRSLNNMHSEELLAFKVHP
B8: Homeobox protein VENTX (Homo sapiens), O95231 (parent)
chain: MRLSSSPPRGPQQLSSFGSVDWLSQSSCSGPTHTPRPADFSLGSLPGPGQTSGAREPPQAVSIKEAAGSSNLPAPERTMAGLSKEPNTLRAPRVRTAFTMEQVRTLEGVFQHHQYLSPLERKRLAREMQLSEVQIKTWFQNRRMKHKRQMQDPQLHSPFSGSLHAPPAFYSTSSGLANGLQLLCPWAPLSGPQALMLPPGSFWGLCQVAQEALASAGASCCGQPLASHPPTPGRPSLGPALSTGPRGLCAMPQTGDAF
partner: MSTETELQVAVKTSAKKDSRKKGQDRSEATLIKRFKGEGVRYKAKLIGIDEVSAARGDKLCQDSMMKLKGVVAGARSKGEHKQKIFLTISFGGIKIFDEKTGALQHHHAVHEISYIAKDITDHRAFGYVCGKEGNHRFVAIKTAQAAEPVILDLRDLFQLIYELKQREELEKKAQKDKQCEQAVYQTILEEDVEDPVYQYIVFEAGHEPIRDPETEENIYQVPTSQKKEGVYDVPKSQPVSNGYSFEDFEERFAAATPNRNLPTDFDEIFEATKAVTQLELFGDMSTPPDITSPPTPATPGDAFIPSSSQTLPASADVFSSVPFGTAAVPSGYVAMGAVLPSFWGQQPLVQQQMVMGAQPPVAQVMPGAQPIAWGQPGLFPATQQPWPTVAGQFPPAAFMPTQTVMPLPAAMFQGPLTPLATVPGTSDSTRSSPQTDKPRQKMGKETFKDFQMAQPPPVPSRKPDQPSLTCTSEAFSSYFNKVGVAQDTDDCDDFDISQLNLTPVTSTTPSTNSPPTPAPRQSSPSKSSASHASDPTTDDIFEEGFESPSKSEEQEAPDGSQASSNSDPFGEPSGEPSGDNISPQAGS

The variants in the first experiment derive from B1. Particulars: with gbg12_human GNG12, Q9UBI6.
gbg12_human GNG12, Q9UBI6, sequence (Q9UBI6 whole entry): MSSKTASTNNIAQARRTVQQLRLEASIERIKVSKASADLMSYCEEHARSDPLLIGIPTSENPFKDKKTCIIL
In the case of R177Q, the “effect of a mutation on the interaction” value was “with no effect”.

The variants in the next experiment derive from B2. To be noted: with ca094_human C1orf94, Q6P1W5.
Take P142S: the “effect of a mutation on the interaction” value is “with no effect”.

Variants of B3 are the subject of another experiment. To be noted: with st2b1_human SULT2B1, O00204.
For the variant V223M, the “effect of a mutation on the interaction” value is given as “with no effect”.

Variants of B4 are the subject of another experiment. Particulars: with cep70_human CEP70, Q8NHQ1.
cep70_human CEP70, Q8NHQ1, sequence (Q8NHQ1 whole entry): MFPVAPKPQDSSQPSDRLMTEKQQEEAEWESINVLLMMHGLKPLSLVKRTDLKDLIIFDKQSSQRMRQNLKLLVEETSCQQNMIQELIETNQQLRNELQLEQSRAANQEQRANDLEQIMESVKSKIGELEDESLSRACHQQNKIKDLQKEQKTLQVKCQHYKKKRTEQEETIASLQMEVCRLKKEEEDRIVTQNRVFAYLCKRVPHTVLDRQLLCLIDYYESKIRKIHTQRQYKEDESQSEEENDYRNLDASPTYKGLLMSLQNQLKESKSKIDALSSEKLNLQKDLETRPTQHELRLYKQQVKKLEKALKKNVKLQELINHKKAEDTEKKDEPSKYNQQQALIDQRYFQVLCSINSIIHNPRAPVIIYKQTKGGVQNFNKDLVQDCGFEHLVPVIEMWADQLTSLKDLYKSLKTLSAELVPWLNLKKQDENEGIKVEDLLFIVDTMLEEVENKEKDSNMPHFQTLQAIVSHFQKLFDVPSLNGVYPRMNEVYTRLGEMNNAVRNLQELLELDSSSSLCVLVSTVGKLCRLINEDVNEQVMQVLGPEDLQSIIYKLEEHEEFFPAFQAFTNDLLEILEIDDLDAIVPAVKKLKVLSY
In the case of Y98H, the “effect of a mutation on the interaction” value is “with no effect”.

Variants of B5 are the subject of another experiment. To be noted: with tri27_human TRIM27, P14373.
Regarding I50V, the “effect of a mutation on the interaction” value was “with no effect”.

Consider R527C, for which the “effect of a mutation on the interaction” value is given as “disrupting interaction strength”.

Variants of B6 are the subject of another experiment. To be noted: with cklf5_human CMTM5, Q96DZ9.
Take R243Q: the “effect of a mutation on the interaction” value is listed as “with no effect”. With R188Q, the “effect of a mutation on the interaction” value is recorded as “with no effect”.

Another experiment covers variants of B7. Particulars: with nr1d2_human NR1D2, Q14995.
For the variant A115T, the “effect of a mutation on the interaction” value is “with no effect”.

With R74Q, the “effect of a mutation on the interaction” value is recorded as “with no effect”.

The next experiment covers variants of B8. Particulars: with dab1_human DAB1, O75553.
M251V: the “effect of a mutation on the interaction” value is “with no effect”. Still for that read-out and setting: then L42P, with “with no effect”; and A226E, with “disrupting interaction strength”.
